Assay results reported in US20240117061A1 (WUHAN YZY BIOPHARMA, published 2024).

B1: human-mouse chimeric antibody c-mAb3 (antibody, human IgG1, V domains shown)
VH: EVQLQQSGPELVKPGASVKILCKASGYTITDYNMDWVKRSHGKSLEWIGNINPHNGGSIYNQKFKGKATLTVDKSSSTAFMELRSLTSEDTAVYYCARGDATLVLDYWGQGTSLTVSS
VL: DIVLTQSPASLAVSLGQRATISCRASKSVSTSGLSYMHWYQQKPGQPPKVLIYLASNLESGVPARFSGSGSGTDFTLNIHPVEEEDAATYYCQHSRELPPTFGAGTKLELK
notes: not shown: human IgG1 heavy chain constant region, GenBank No. AK303185.1; human kappa light chain constant region, GenBank No. MG815648.1
B2: human-mouse chimeric antibody c-mAb2 (antibody, human IgG1, V domains shown)
VH: QVQLQQSDAELVKPGTSVKISCKVSGYTFTDHTIHWMKQRPEQGLEWIGYIYPRNGNTKYNEKFKGKATLTADKSSSTAYMHLNSLTSEDSAVYFCARYDYDGYFDVWGTGTTVTVSS
VL: DVVMTQTPLSLPVSLGDQASISCRSSQSHVHSDGHTYLHWYLQKPGQSPELLIYKVSNRFSGVPDRFSGSGSGTDFTLKISRVEAEDLGVYFCSQNTHFPWTFGGGTKLEIK
notes: as for B1

Key:
[1] = biological target: T1, human BCMA on cells (NCI-H929, U266B1, HEK293 huBCMA) (human, UniProt Q02223 1-184); experiment: flow cytometry on NCI-H929 cells
T1 construct: whole, on cells; also called cell surface BCMA antigen
T1 sequence (looked up): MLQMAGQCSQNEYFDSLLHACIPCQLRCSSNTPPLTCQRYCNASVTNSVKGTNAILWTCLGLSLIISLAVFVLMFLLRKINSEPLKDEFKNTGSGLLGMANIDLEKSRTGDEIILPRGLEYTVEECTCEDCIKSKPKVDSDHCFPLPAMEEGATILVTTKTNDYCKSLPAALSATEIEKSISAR
Experimental: (§1) Procedures: The cells were resuspended in PBS, and the cell density was adjusted to 2×10^5 cells/well. Human-mouse chimeric monoclonal antibodies were added to a 96-well plate at 50 μL/well and serially 3-fold diluted from 3000 nM to the 9th concentration. The plate was incubated for 1 h at 4° C. 150 μL of precooled PBS containing 1% of FBS was added into the 96-well plate after the co-incubation with the primary antibody was finished. The mixtures were centrifuged at 300×g for 5 min and the supernatants were discarded. The above procedures were repeated once. The fluorescent secondary antibody PE anti-human IgG Fc (Biolegend, 409304) was added at 80 μL/well. The plate was incubated at 4° C. for 30 min. 150 μL of precooled PBS containing 1% of FBS was added into the 96-well plate after the co-incubation with the secondary antibody was finished. The 96-well plate was centrifuged at 300×g for 5 min and the supernatants were discarded. The above procedures were repeated once. The cells were resuspended in 100 μL of PBS containing 1% of FBS and detected on a flow cytometry (BD Accuri™ C6).

[2] = biological target: T1, human BCMA on cells (NCI-H929, U266B1, …); experiment: flow cytometry on NCI-H929 cells; remark: listed apart in the source
Experimental: Procedures: Preparation of cell suspensions: The cells were resuspended in PBS, and the cell density was adjusted to 2×10⁵ cells/well. Mouse antibodies were added to a 96-well plate at […] and serially 3-fold diluted from 3000 nM. The plate was incubated for 1 h at 4° C. 150 μL of precooled PBS containing 1% of FBS was added into the 96-well plate after the co-incubation with the primary antibody was finished. The mixtures were centrifuged at 300×g for 5 min and the supernatants were discarded. The above procedures were repeated once. The fluorescent secondary antibody PE […] (Biolegend, 409304) was added at 80 μL/well. The plate was incubated at 4° C. for 30 min. 150 μL of precooled PBS containing 1% of FBS was added into the 96-well plate after the co-incubation with the secondary antibody was finished. The mixtures were uniformly mixed with a pipette. The 96-well plate was centrifuged at 300×g for 5 min in a plate centrifuge and the supernatants were removed. The above procedures were repeated once. The cells were resuspended in 100 μL of PBS containing 1% of FBS and detected on a flow cytometry (BD Accuri™ C6).

[3] = biological target: T1, human BCMA on cells (NCI-H929, U266B1, …); experiment: flow cytometry on U266B1 cells
Experimental: as §1

[4] = biological target: T2, recombinant human BCMA-his fusion protein (ACRO Biosystem, Cat. No. BCA-H522y) (human, UniProt Q02223 1-54); experiment: SPR (Biacore T200), anti-His capture on CM5, 1:1 fit
T2 construct: extracellular domain; Bought protein; also called huBCMA-his; hu BCMA-his; not shown: His tag
T2 sequence (looked up): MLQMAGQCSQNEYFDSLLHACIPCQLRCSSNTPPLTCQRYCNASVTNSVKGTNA
Experimental: In this example, the antigen-antibody binding kinetics and affinity were determined by the BIACORE method.
Procedures: The anti-histidine antibody (GE, His capture Kit, Cat. No. 28995056) was conjugated to the Sereis S Sensor Chip CMS to capture the test articles, thus acquiring the binding kinetic and affinity data of the antigen, as an analyte, to the test articles. The initial concentration for detecting the binding of the antigen and the test articles was 10 nM. […] The Start up flushing process (1×HBS-EP+buffer) was performed at least thrice before loading to equilibrate the system. The association and dissociation tendencies between the antigen and the test articles were detected. When the dissociation was completed, a regeneration reagent was loaded for regeneration before the detection of the next concentration was performed. After the detection was finished, the data were fitted by using a 1:1 Binding fitting mode in data analysis software (Biacore T200 Evaluation Software).

[5] = biological target: T3, recombinant human BCMA-mFc fusion protein (human; mouse); experiment: indirect ELISA, coated antigen
T3 construct: also called huBCMA-mFc
T3 chain: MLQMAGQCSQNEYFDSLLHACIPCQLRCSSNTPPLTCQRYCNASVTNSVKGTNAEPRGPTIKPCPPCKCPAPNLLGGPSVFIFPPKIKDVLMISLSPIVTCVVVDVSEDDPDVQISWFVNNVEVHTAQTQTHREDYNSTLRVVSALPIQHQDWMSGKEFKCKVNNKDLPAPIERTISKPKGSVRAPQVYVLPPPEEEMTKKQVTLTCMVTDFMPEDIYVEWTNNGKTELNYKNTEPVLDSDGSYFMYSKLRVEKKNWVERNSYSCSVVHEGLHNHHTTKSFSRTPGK
Experimental: Procedures: Human, mouse and monkey BCMA antigens were prepared into 0.5 μg/mL coating solutions with PBS buffer. The coating solutions were added to a microplate at 100 μL/well and incubated at 4° C. overnight. The residual coating solution was discarded before 3% BSA was added at 300 μL/well, and the plate was blocked for 3 h at room temperature. The microplate was washed once with PB ST (PBS containing 0.1% of TWEEN 20) at 300 μL/well. The human-mouse chimeric monoclonal antibodies were serially 3-fold diluted from 10 μg/mL to the 9th concentration. The dilutions were added to the microplate at 100 μL/well. After a 1-h incubation at room temperature, the microplate was washed thrice with PB ST at 300 μL/well. The mouse anti-human IgG Fc antibody [HRP] mAb was 25,000-fold diluted with 1% BSA-PBST and added at 100 μL/well. After another 1-h incubation at room temperature, the microplate was washed thrice with PBST at 300 μL/well and dried. The TMB chromogenic solution was added at 100 μL/well. After a 5-min reaction at room temperature, 2 M H₂SO₄ was added at 100 μL/well to terminate the reaction. The microplate was placed on a microplate reader (Molecular Devices, SPECTRA Max plus 384) and the absorbance OD450 value was read at 450 nm wavelength.

Binder | EC50 [1] | EC50 [2] | EC50 [3] | Kd [4] | koff [4] | kon [4] | EC50 [5]
B1 | 8.25 nM | 8.25 nM | 81.5 nM | 0.38 nM | 0.00178 s⁻¹ | 4.69e+06 M⁻¹ s⁻¹ | 0.794 nM
B2 | 5.7 nM | 5.7 nM | 14.7 nM | 1.45 nM | 0.0679 s⁻¹ | 4.68e+07 M⁻¹ s⁻¹ | 0.427 nM
